Laboratory results reported in patent US20240358834A1 (University of Pennsylvania, published 2024).

T1: human CD19 protein with a biotinylated AviTag (Acrobiosystems) (human, UniProt P15391 20-291, biotinylated AviTag)
T1 construct: Captured on streptavidin-coated microplate wells; also called biotinylated-AviTag-CD19; hCD19; not shown: AviTag
T1 sequence (looked up): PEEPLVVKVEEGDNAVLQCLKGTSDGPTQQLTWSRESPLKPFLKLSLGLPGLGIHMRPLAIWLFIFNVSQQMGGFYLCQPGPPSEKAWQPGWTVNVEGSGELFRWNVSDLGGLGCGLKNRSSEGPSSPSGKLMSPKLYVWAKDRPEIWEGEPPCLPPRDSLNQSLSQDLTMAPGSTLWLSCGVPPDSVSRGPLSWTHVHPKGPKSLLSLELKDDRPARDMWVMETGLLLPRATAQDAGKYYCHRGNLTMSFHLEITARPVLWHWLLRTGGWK

B1: scFv 18 (scFv)
scFv: QSALTQTASVSGSLGQKVTISCTGSRSNIGANYVGWYQQVPGIGPRTVIFGYNYRPSGVPDRFSSSKSGNSATLTISGLQAEDEAEYYCSTWDSSLNAYVFGSGTQLTVLGGGSSRSSSSGGGGSGGGGEVPLVESGGDLVKPGGSLRLSCVASGFTLSNYGMSWVRQSPGKGLQWVAAIRSGGNTYYADAVKGRFTISRDNAKNTLYLQMNSLRAEDTAVYYCASQWGDWGHFEYWGQGTLVTVSSASTTAPSVTSGQAGQHHHHHHGAYPYDVPDYAS
notes: Canine scFv (VL-linker-VH); also called P4-12
B2: scFv 13 (scFv)
scFv: QPVLTQPPSVSGALGQTVTISCSGSHTNIGSGFDVQWYQQLPGKSPQTLVYANINRPSGVPARFSGSKSGSTATLTITGVQAEDEADYYCQSYDDNFDYVFGSGTQLTVLGGGSSRSSSSGDGGSGGGGEVQLVESGGGLMKPGGSLKLSCLASGFTFSRYYMYWVRQAPGKGLQWVAQISSDGRRTYYADAVQGRFTISRDNVKNTVYLQMNSLSDEDTAVYYCVREDYFDFDYWGQGTLVTVSSASTTAPSVTSGQAGQHHHHHHGAYPYDVPDYAS
notes: Canine scFv (VL-linker-VH); also called P3-36; P3-38
B3: scFv 23 (scFv)
scFv: DIVMTQTPLSLSVSPGEPASISCKASQSLLHSNGNTYLYWFRQKPGQSPQRLIYLVSNRDAGVPDRFSGSGSGTDFTLRISRVEADDSGIYYCGQGKQDPITFGEGTHLEIKGGSSRSSSSGGGGSGGGGELTLQESGPGLVKPSQTLSLTCVVSGGSVTTSDYWNWLRQRPGRGLEYMGYWKGRTEYNPAFQGRISITADTAKNQFSLQLNSVTADDTAIYYCAHWGSGNLDYWGPGTLVTVSSESPSPPNLTSGQAGQHHHHHHGAYPYDVPDYAS
notes: Canine scFv (VL-linker-VH); also called P3-37
B4: scFv 1 (scFv)
scFv: QAVLNQPASVSAALGQRVTISCNTNIGSPYDVQWYQQLPGKSPKTIIYGNSNRPSGVPVRFSGSKSGSTATLTIAGIQAEDEADYYCQSYDDSLDGRVVFGGGTQLTVLGGGSSRSSSSGGGGSGGGGEVQLVESGGDLVKPGGSLRLSCVASGFTFSNHEMYWVRQAPGKGLEWVARIYDSGSRTRYADAVKGRFTISRDNAKNTLYLQMNSLTAEDTAVYFCAGGNSRGWTEFGMDYWGPGTLVTVSSASTTAPSVTSGQAGQHHHHHHGAYPYDVPDYAS
notes: Canine scFv (VL-linker-VH); also called scFv_01; P3-15
B5: scFv 16 (scFv)
scFv: QSVLTQPTSVSGSLGQRVTISCTGSSSNVGYGNYVGWYQQLPGTGPRTLIYGSHYRPSGVPDRFSGSSSGSSATLTISGLQAEDEADYYCSSYDSTLSGYVFGSGTQLTILGGGSSRSSSSGGGGSGGGGEVQLVESGGDLVKPGGSLRLSCVGSGFTLSSYWMSWVRQAPGKGLQWIAEISGSGNTIYYGDAVKGRFTISRDNAKNTLYLQMNSLRDEDTAVYYCATEYYWNIDNWGQGTLVTVSSESPFPPNLTSGQAGQHHHHHHGAYPYDVPDYAS
notes: Canine scFv (VL-linker-VH); also called P3-33; P4-01
B6: scFv 2 (scFv)
scFv: SYVLTQSPSLSGSLGQKVTISCTGSRSNLGGNYVGWYQQVPGMAPRNVIYANDFRPSRIPARFSASKSGTSATLTISGLQAEDEADYFCSSWDDDLGSHVFGSGTQLTILGGGSSRSSSSGGGGSGGGGEEQLVEFGGDLVKPGGSLRLSCVASGFSFSSYDMSWVRQAPGKGLQWVASTNFDGSRTYYTDAVEGRFTISRDNARNTVYLQMNSLRAEDTAVYYCARGMGSWGASTFGYWGQGTLVTVSSASTTAPSVTSGQAGQHHHHHHGAYPYDVPDYAS
notes: Canine scFv (VL-linker-VH); also called scFv_02; P3-21
B7: scFv 17 (scFv)
scFv: QPVLTQPPSVSAALGQRVTISCTGSKTNIGSGYDVQWYQQLPGKSPKTIIYGNSNRPSGVPARFSGSKSGSIATLTITGIQAEDEADYYCQSFDDNVDGYVFGSGTQLTILGGGSSRSSSSGGGGSGGGGEVPLVESGGDLVKPGGSLRLSCVASGFTFSSYGMSWVRQAPGKGLQWVAYINGGGSSTSYADAVRGRFTISRDNAENTLYLQMNSLRADDTAVYYCSNYYGIYWDSDYWGQGTLVTVSSESPSPPNLTSGQAGQHHHHHHGAYPYDVPDYAS
notes: Canine scFv (VL-linker-VH); also called P4-05A; P4-05B
B8: scFv 10 (scFv)
scFv: QAVLNQPASVSGALGQTVTISCSGSHTNIGSGFDVQWYQQLPGKSPQTIIYANINRPSGVPARFSGSKSGSTATLTITGVQAEDEADYHCQSFDDDLDGPVFGGGTHLTVLGGGSSRSSSSGGGGSGGGGEVQLVQSGGDLVKPGGSLKISCVASGLTFNRNYMTWIRQAPGKGLQWVSEINPDGSTTSYTDAVRGRFTISRDNAKNTLYLQMNSMRDEDTAVYYCARSSWGSFDYWGQGTLVTVSSASTTAPSVTSGQAGQHHHHHHGAYPYDVPDYAS
notes: Canine scFv (VL-linker-VH); also called P3-01
B9: scFv 25 (scFv)
scFv: DIVMTQTPLSLSVSPGETASISCKASQSLLHSNGNTYLNWFRQKPGQSPQVLIYQVSNRDTGVPDRFSGSGSGTDFTLRISRVEADDAGVYYCGQGIQYPPTFGAGTKVELKGGSSRSSSSGGGGSGGGGEEQLVEFGGDLVKPGGSLRLSCVASGFTFSSLSMNWIRQAPGKGLQWVSQISPDGTITGYTDAVKGRFTISRDNAKNTLYLQMNSLRDEDTAIYYCAKSRYTDTYPFDYWGPGTLVTVSSESPSPPNLTSGQAGQHHHHHHGAYPYDVPDYAS
notes: Canine scFv (VL-linker-VH); also called P3-40
B10: scFv 11 (scFv)
scFv: QPVLTQPPSVSGALGQTVTISCSGSHTNIGSGFDVQWYQQLPGKSPQTLVYANINRPSGVPARFSGSKSGSTATLTITGVQAEDEADYYCQSYDDNFDYVFGSGTQLTVLGGGSSRSSSSGGGGSGGGGEVQLVESGGDLVKPGGSLRLSCVASGFTFSDYSMSWVRQSPGKGLQWVAAIMTSGSTYYADAVKGRFTISRDNAKNTLYLQMDSLRAEDTAVYYCAHDYWFDFWGQGTLVTVSSASTTAPSVTSGQAGQHHHHHHGAYPYDVPDYAS
notes: Canine scFv (VL-linker-VH); also called P3-57
B11: scFv 19 (scFv)
scFv: QAVLTQPASVSGPLGQRVTISCSGSTNNIGIVGAAWYQQFPGKAPKLLVYSDGSRPSGVPDRFSGSNSGNSATLTISGLQAEDEADYYCQSVDATHGTILFGGGTQLTVLGGGSSRSSSSGGGGSGGGGEVQLVETGGDLVKPAGSLRLSCAASGFPFSGYSMTWVRQAPEKGLQLVAGINSDGSHTYYTDDVKGRFTVSRDNTKYILYLQMNSLRVEDTAIYYCGSHSWGNFHYWGQGTLVTVSSESPSPPNLTSGQAGQHHHHHHGAYPYDVPDYAS
notes: Canine scFv (VL-linker-VH); also called P3-35
B12: scFv 12 (scFv)
scFv: SYELTQPPSATVTLRQTARLTCGGENIGRKSVQWYQQKPGQSPLLIIYADSSRPSGIPERFSGANSGNTASLTISGALAEDEADYYCQIWDRNINVFGSGTQLTVLGGGSSRSSSSGGGGSGGGGEEQLVEFGGDLVKPAGSLRLSCVASGFTFSSYDMSWVRQAPGKGLQWVATISYDGSSTYYTDAVKGRFTVSRDNAKNTLYLQMNSLRAEDTALYYCAKDSGSWSHFYGLDTWGHGTSVFVSSASTTAPSVTSGQAGQHHHHHHGAYPYDVPDYAS
notes: Canine scFv (VL-linker-VH); also called P3-48
B13: scFv 22 (scFv)
scFv: QPVLTQPPSVSGSLGQRVTISCTGSSSNVGYGDYVGWYQQLPGTSPRTLIYSSSSRPSGVPDRFSGSRSGSTATLTISGLQAEDEADYHCSSYDTSLNGFVFGSGTQLTILGGGSSRSSSSGGGGSGGGGELTLQESGPGLVKPAQTLSLTCTVSGDSVTSSHFWHWIRQRPGRGLEWMGYWSDITIYSPTFQGRISITVDTARNQFSLHLNSVTTEDSAVYFCARYNGYVDYLDVWGQGTLITVSSASTTAPSVTSGQAGQHHHHHHGAYPYDVPDYAS
notes: Canine scFv (VL-linker-VH); also called P3-09; P3-11
B14: scFv 20 (scFv)
scFv: QSVLNQPPSVSVSLGQTATISCSGESLSKYYAQWFQQKAGQVPVLVIYKDTERPSGIPDRFSGSSSGNTHTLTISGARAEDEADYYCESEVSPDTIVFGGGTHLTVLGGGSSRSSSSGGGGSGGGGEVQLVESGGDLVKPGGSLRLSCVASGFTFSSYAMSWVRQAPGEGLQWVAYINSAGSTTYYADAVKGRFTISRDNARNTVYLQMNSLRAEDTAVYYCGRYYYGLDYWGPGTSVFVSSESPSPPNLTSGQAGQHHHHHHGAYPYDVPDYAS
notes: Canine scFv (VL-linker-VH); also called P3-12
B15: scFv 15 (scFv)
scFv: SYELTQPPSVSAALGQGVTISCIGSDTNIGNHYDVQWYQQLPGKSPRTIIYGNSDRPSGVPGRFSGSKSGNTATLTITGIQAEDEADYHCQSYDDDLDGHIVFGGGTHLTVLGGGSSRSSSSGGGGSGGGGEVQLVQSGGDLVKPGGSLRLSCVASGFTFNKYHMSWVRQAPGKGLQWVGKITSDGSATGYADAVKGRFTISRDNAKNTFYLQMDSLRAEDTAMYYCARDQSSWGTGNFDYWGQGTLVTVSSASTTAPSVTSGQAGQHHHHHHGAYPYDVPDYAS
notes: Canine scFv (VL-linker-VH); also called P3-59A
B16: scFv 14 (scFv)
scFv: QSVLNQPPSVSAALGQRITISCTGSHTNIGSGYDVQWYQQLPGKSPRTIIYGNSDRPSGVPVRFSGSKSGNTATLTITGIQAEDEADYYCQSYDDNLNDPYVFGSGTQLTVLGGGSSRSSSSGGGGSGGGGEVQLVQSGGDLVKPGGSLRLSCVASGFAFSGKTMQWVRQAPGKGLQWVAYIQHDGSRTSYADAVKGRFTISRDNAKNTLYLQMDSLRAEDTAVYYCADHPWYGPEYWGQGTPVTVSSESPSPPNLTSGQAGQHHHHHHGAYPYDVPDYAS
notes: Canine scFv (VL-linker-VH); also called P3-58
B17: scFv 21 (scFv)
scFv: QPVLTQPPSVSVSLGQTATISCSGESLSKYYAQWFQQKAGQAPVLVIYKDTERPSGIPDRFSGSSSGNTHTLTISGARAEDEADYYCESAVSSDTAVFGSGTQLTVLGGGSSRSSSSGGGGSGGGGEVQLVESGGDMVKPGGSLRLSCVASGFTFSSFWMYWVRQAPGKGLQWVGGINSGGSITSYADAVKGRFTISRDNARNTLYLQMDSLRDEDTAVYYCAKPDIYGSFDHWGQGTLVTVSSESPSPPNLTSGQAGQHHHHHHGAYPYDVPDYAS
notes: Canine scFv (VL-linker-VH); also called P3-04; P3-34

Target: T1, human CD19 protein with a biotinylated …
Assay: phage ELISA, biotinylated AviTag CD19 on streptavidin wells; signal ratio to FMC63 standard
Source text: To identify unique human CD19-binding monoclonal scFv from the panned libraries, individual phage antibody clones were expanded, assessed for binding to CD19 by ELISA, and subjected to nucleotide sequencing to identify those clones that were unique. A total of 84 scFvs were randomly selected from the panned libraries (70 from P3 and 14 from P4).

Row | Binder | ELISA hCD19 (ratio FMC63)
1 | B1 | 0.27 ratio to FMC63
2 | B2 | 0.28 ratio to FMC63
3 | B3 | 0.36 ratio to FMC63
4 | B4 | 0.84 ratio to FMC63
5 | B5 | 0.41 ratio to FMC63
6 | B6 | 0.49 ratio to FMC63
7 | B7 | 0.66 ratio to FMC63
8 | B8 | 0.77 ratio to FMC63
9 | B9 | 0.15 ratio to FMC63
10 | B10 | 0.31 ratio to FMC63
11 | B11 | 0.26 ratio to FMC63
12 | B12 | 0.16 ratio to FMC63
13 | B13 | 0.21 ratio to FMC63
14 | B14 | 0.47 ratio to FMC63
15 | B15 | 0.99 ratio to FMC63
16 | B16 | 0.59 ratio to FMC63
17 | B17 | 0.71 ratio to FMC63
